The data set in a line: yeast display, Sf9 membrane polyspecificity reagent, FACS + sequencing; frameworks hold sequencing errors. Summed up: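 A synthetic nanobody library was expressed on Saccharomyces cerevisiae BJ5465 by galactose induction for 36–48 hours. The library was stained for 1 hour at 4 °C with 10% biotinylated, detergent-solubilized Sf9 membrane reagent and enriched with streptavidin microbeads before FACS. Low and high (top ~1%) gates were set on anti-HA fluorescence for expression and streptavidin fluorescence for reagent binding, and each polyreactivity label reflects the gate of origin.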
In the case of “QFQLVESGGGLVQAGGSLRLSCAASGRIYGLYAKGWYRQAPGKERELVAAISSTGGRTFYADSVKGRFTISRDNAKNTVYFQMNSLKPDDTAVYYCAAYRYSRYRQRYNYCGQGTQVTVSS”, the “polyreactivity (PSR sort gate)” value is reported as “high polyreactivity”. With “QFQLVESGGGLVQAGGSLRLSCAASGRTFGGYAMGWYRQAAGKVREFVAALTYRGASTYYSDSVKGRFTISRDNAKNTVYFQMNSLKPEDTAVYYCAAEGSIKYFVGYTWGYNYWGQGTQVTVSS”, the “polyreactivity (PSR sort gate)” value is listed as “low polyreactivity”. With “QFQLVESGGGLVQAGGSLRLSCAASGRTFGRYAMGRDRPAPGKERELVAAINSGGSTYYADSVKGRFTISRDNAKNTVYLQMMSLKPEDTAVYYCDTQWTWKLGYWGQGTQVTVSS”, the “polyreactivity (PSR sort gate)” value is “high polyreactivity”. With “QFQLVESGGGLVQAGGSLRLSCAASGSIFLSNAMGWYRQAPGKERELVADIDWTGGDTYYADSVKGRFRISRDNAKNTVYLQMNSLKREDTAVYYCAADYGYRNLRTEYGYWGQGTQVTVSS”, the “polyreactivity (PSR sort gate)” value is reported as “low polyreactivity”. As for “QFQLVESGGGLVQAGGSLRLSCAASGSIFRAYAMGRYRQATGKERELVADISRSGGSTYYADSVKGRFTISRDNAKNTVYLQMNSLTQEVTAVYYCAAVFYLYSNLYGEYDYWGQGTQVTVSS”, the entry is “low polyreactivity”; as for “QFQLVESGGGLVQAGGSLRLSCAASGSIFRENAMGWYRQAPGKEMELVAAIYVRDGDTFYADSVKGRFTISRDNAKNTVYLQMNSLKPEDTAVYYCAADQQKWYTGYDYWGQCTQVTVSS”, “low polyreactivity”; as for “QFQLVESGGGLVQAGGSLRLSCAASGSIFSINAMGWYRQAPGKERELVAVISWIGGNTYYADSVKGRFTISRDNAKNTVYLQMNSLKPEDTAVYYCAVATGPVSYRRYYWGQGTQVTVSS”, “high polyreactivity”. As for “QFQLVESGGGLVQAGGSLRLSCAASGSISDIYAMGWYRQAPGKERELVASISSGGITNYADSVKGRFTISRDNAKNTVYLQMNSLKPEDTAVYYCAKDRYHISFFYQMEYWGQGTQVTVSS”, the entry is “low polyreactivity”. As for “QFQLVESGGGLVQAGGSLRLSCAASGSSFTVYAMGWYRQAPGKETELVAAISYVGGSTYYAASVKGRFTISRDNAKNTVYLQMNSLKPEDTAVYYCAADPYYSYGYYHAHGRDVGYWGQGTQVTVSS”, the entry is “low polyreactivity”; as for “QFQLVESGGGLVQAGGSLRLSCAASGSTFDPYAMGWDTQAPGKEREFLADIDSSVGSTFYADSVKGRFTISRDNPKNTVYLQMNSLKPEDTAVYYCAAASRVAKGRWRLYDYWGQGTQVTVSS”, “high polyreactivity”.

As for “QFQLVESGGGLVQAGGSLRLSCAASGSTFFVYDMGWYRQATGKEGELVAAISISDGGTYYADSVKGRFTISRDNAKNTVYLQMKSLKPEDTAVYYCAADYSERYFPGYDYWGQGTLVTVSS”, the “polyreactivity (PSR sort gate)” value is given as “low polyreactivity”. Turning to “QFQLVESGGGLVQAGGSLRLSCAASGSTFGSYAMGWYRQAPAKESELVAAITASGGSTNYADSVKGRFTISRDNAKNTVYLQMNSLKPEDTAVYYCAADTTYSPLSIEYDYWGQGTQVTVSS”, the “polyreactivity (PSR sort gate)” value is listed as “low polyreactivity”. For the sequence “QFQLVESGGGLVQAGGSLRLSCAASGSTFVPNTMGWYRQAPGIERELVAAITYSGGSTYYADSVKGRFTISRDNAKNTVYLQMHSLKPEDTAVYYCAAEGTTWYYDMDYWGQGTQVTVSS”, the “polyreactivity (PSR sort gate)” value is “low polyreactivity”. As for “QFQLVESGGGLVQAGGSLRLSCAASGSTIPRNAMGWYRQAPGKERELVAVITGSGGSTYYADSVKGRFTISRDNAKNTVYLQMNSLKPEDTAVYYCAAKYRFYGFDYWGQGTQLTVSS”, the entry is “high polyreactivity”; as for “QFQLVESGGGLVQAGGSLRLSCAASGSTLAPYVMGWYRQAPGKDRELVAVISTRTGRPYYADSVKGRFTISRDNAKNTVYLQMNSLKPEDTGVYYCAARKKTTYRDWGRHDYWGQGTQVTVSS”, “high polyreactivity”.

For the sequence “QFQLVESGGGLVQAGGSLRLSCAASGYTFGNYAMGWYRPAPGNVRVLVAGISWSGGSTYYADSVKGRFTISRDNAKNTVYLQMNSLKPEDTAVYYCATRVQGYHNGWYAYLGQGTQVTVSS”, the “polyreactivity (PSR sort gate)” value was “high polyreactivity”. For the sequence “QFQLVESGGGLVQAGGSLRLSCAASGYTFGQYDMGWYRQAPGKERELVAAISTGGVSTYYADSVKGRFTISRDNAKNTVYLQMNSLKPEDTAVYYCATTPYVRYDYWGQGTQVTVSS”, the “polyreactivity (PSR sort gate)” value is on record as “low polyreactivity”.

As to “QFQLVESGGGLVQAGGSLRLSCASSGSIFWYYAMGWYRQAPGKERELVATITSGGRTDYADSVKGRFTISRDNAKNTVYLQMNSLKPEDTAVYFCAAGPRWRPRSYDYWGHGTQVTVSS”, the “polyreactivity (PSR sort gate)” value was “high polyreactivity”. On to “QFQLVESGGGLVQAGGSLRLSCASSGSIFYGNAMVCYRQAPGKERELVADIRWSGGSTYYADSVKGRFTISRDNAKNTVYLQMNSLKPEDTAVYYCAVRSPYRWRYASRYHEYDYWGQGTQVTVSS”, for which the “polyreactivity (PSR sort gate)” value is given as “low polyreactivity”.

For “QFQLVESGGGLVQAGVSLRLSCAASGSIILVYAMGLYIQATGKETELVPAITTRGSSTYYADSVKGRFKISRDNAKNTYYLQMNSLKPEDTEVYYCAKEFPGTQGRGVTGFSGTALGYWGQGTKVTVSS”, the “polyreactivity (PSR sort gate)” value is “low polyreactivity”. As to “QFQLVESGGGLVQARGSLRLSCAASGITFKEYAMGWYRQAPGTERELVAAISKSGGSTYYADSVKGRFTISRDNAKNTVYLQMTSLKPEDTAVYYCAADYAEYEYGDYYWGQGTQVTVSS”, the “polyreactivity (PSR sort gate)” value is “low polyreactivity”.

As to “QFQLVESGGGLVQEGGSLRLSCAASGRTLAKNAMGWYRQAPGKEREFVAAISRRGGSTYYADSVKGRFTISRDYAKYTVYLQLNSLKREDTAVYYCARASRQGYYQLSYDEFDYWGQGTQVTVSS”, the “polyreactivity (PSR sort gate)” value is listed as “high polyreactivity”. Take “QFQLVESGGRLVQAGGSLRLSCAASGFIFWYNAMGWYRQAPGKEREFVAAISSGGSTTYADSVKGRFTISRDNAKNTVYLQMNSLKPEDTAVSYCAAGSYDYDYWGQGTQVTVSS”: the “polyreactivity (PSR sort gate)” value was “low polyreactivity”. Consider “QFQLVESGRGLVQAGGGLRLSCAASGLTFGYYTMGWYRQAPGKERELVAAINYSGGSTYYADSVKGRFTISRDNAKNTVYLQMNCLKPEDSAVYYCAAEGPVYTTYEYWGQGNQVTVSS”, for which the “polyreactivity (PSR sort gate)” value was “low polyreactivity”. As for “QFQLVESGRGLVQAGGSLRLSCAASGNTFGPYAMGWYRQAPGKERELVAAISSGGSTNYADSVKGRFTISRDNAKNTVYLQMNSLKPEDTAVYYCAAPYRSYVRYKYDYWGQGTLVTVSS”, the entry is “low polyreactivity”; as for “QFQLVESGRGLVQAGGSLRLSCAASGSIFYSYAMGRYRQAPGKEREFVATISDSSGSTYYADSVKGRFTISRDNAKNTVYLQMNSMIPEDTAVYYCATTDSYGYYGYGDWGQGTQVTVSS”, “low polyreactivity”.

As for “QFQLVESRGGLVQAGGSLRLSCAASGFIFTHYAMGWYRQAPGKERELVAAITRRGGDTHYADSVKGRFTISRDNPKNTVYLQMNSLKPEDTAVYYSNAKRYSWGYYPAFDYWGHGTQVTVSS”, the “polyreactivity (PSR sort gate)” value was “high polyreactivity”.

For “QFQLVESVGGLVQAGGILRLSCAASGRNYNSYAMGWYRKAPGKERELVAAISRTGASTYYSDSVKGRFTISRDNAKNTVYLQMNSLKPEDTAVYYCAADANSGDGYYWGQGTQVTVSS”, the “polyreactivity (PSR sort gate)” value was “high polyreactivity”. Take “QFQLVQSGGGLVQAGGSLRLSCAASGFILEPNAVGWYRQAPGKERELVATISYSGGGTYYADSVKGRFTISRDNAKNTVYLQLNCLKPEDTAVYYCAVDWYYYVWWYDYWGQGTHVTVSS”: the “polyreactivity (PSR sort gate)” value was “high polyreactivity”.

On to “QFQPVESGGGLVQAGGSLRLSCAASGFTFYRYAMGWYRPAHGKERELVAAITFSGSSTYYADSVKGRFTISRDNAKNTVYLQMNSLKEEDTAVYYCAAGGSFWYFSPRYGYWGQGTQVTVSS”, for which the “polyreactivity (PSR sort gate)” value is “high polyreactivity”.

The record behind these values is the nanobody polyreactivity screen of Harvey et al. (2022).
